The target in experiment [1] is T1, CXCL10 (Homo sapiens, UniProt P02778).
T1 construct: purchased Peprotech 300-12
As to the kind of experiment: CXCL10-induced activated T cell (ATC) migration (chemotaxis). It is filed as cell-based. To be noted: HD2, HD2SCR and EVA4 at 20 μM (Fig. 6i), activated T cells, n = 3 biological replicates. On the procedure: For activated-T cell migration assays, 100000 cells/well were added to the top chamber of a 3-µm Transwell insert (3385, Corning) in 50 µL of migration media (HBSS (14025-092, Life Technologies), 0.1% protease free bovine serum albumin (A7030, Sigma), 0.05% DMSO (D4540, Sigma)). The bottom chamber contained 150 µL of migration media with chemokine and peptide added. Cells were migrated at 37 °C in 5% CO2 for 2 h.
Following the migration assay the migration plate was shaken at 850 RPM for 10 min, and media from bottom plate transferred to a round-bottomed 96 well plate (353910, Falcon). Cell counts were determined using an Atune NxT Flow Cytometer Plate Reader with Cytkick autosampler (ThermoFisher), based on cell size parameters FSC-H/SSC-H, and a previously defined gate setting for each cell type (Supplementary Fig. 11). All experiments were performed as three technical and three biological replicates. Statistical significances between control and experimental groups was evaluated using Dunnett’s test[73]. IC50 experiments were performed at the EC80 dose of chemokine. EC80 was calculated by fitting a chemokine dose-response curve with a 3-parameter log-logistic model (fixing the top to 100%) using the function “drm” in R-package drc[74]. IC50 was calculated by fitting an inhibitor response curve with a 4-parameter log-logistic model using the function “drm” in R-package drc[74]. […]

Experiment [2] deals with T2, CXCL6 (Homo sapiens, UniProt P80162).
T2 construct: purchased Peprotech 300-41
As to the kind of experiment: CXCL6-induced Jurkat CXCR1 (J:CXCR1) migration (chemotaxis). The experiment is classed as cell-based. To be noted: HD2, HD2SCR and EVA4 at 10 μM, chemokine at EC80, J:CXCR1 cells, n = 3 biological replicates, Dunnett's test. On the procedure:
For THP1 migration assays, 300000 cells/well were added to the top chamber of a 5-µm 96-well Transwell insert (3387, Corning) in 50 µL of cell migration media (RPMI-1640 (R0883, Sigma), 0.5% FBS (F9665, Sigma), 4 mM L-Glutamine (G7513, Sigma), 0.05% DMSO (D4540, Sigma)). The bottom chamber contained 150 µL of migration media with chemokine and peptide added. Cells were migrated at 37 °C in 5% CO2 for 4 h.
J:CXCR1 migration assays were performed exactly as for THP1 assays except that a 3-µm Transwell insert (3385, Corning) was used.
Following the migration assay the migration plate was shaken at 850 RPM for 10 min, and media from bottom plate transferred to a round-bottomed 96 well plate (353910, Falcon). Cell counts were determined using an Atune NxT Flow Cytometer Plate Reader with Cytkick autosampler (ThermoFisher), based on cell size parameters FSC-H/SSC-H, and a previously defined gate setting for each cell type (Supplementary Fig. 11). […] Statistical significances between control and experimental groups was evaluated using Dunnett’s test[73]. […] EC80 was calculated by fitting a chemokine dose-response curve with a 3-parameter log-logistic model (fixing the top to 100%) using the function “drm” in R-package drc[74]. IC50 was calculated by fitting an inhibitor response curve with a 4-parameter log-logistic model using the function “drm” in R-package drc[74]. […]

B1: EVA4: parental tick class A evasin, mature peptide residues 24–127 with N-terminal His-tag, expressed in HEK293F cells (protein)
chain: EVPQMTSSSAPDLEEEDDYTAYAPLTCYFTNSTLGLLAPPNCSVLCNSTTTWFNETSPNNASCLLTVDFLTQDAILQENQPYNCSVGHCDNGTCAGPPRHAQCW
modifications: left off: 8xHis, N-terminal, state not stated
notes: parental tick class A evasin, mature peptide residues 24–127 with N-terminal His-tag, expressed in HEK293F cells
With B1, the “effect on chemokine-induced cell migration” value in experiment [1] and in experiment [2] was “did not inhibit” in each case.

Source of the values: paper PMC10505172, “Discovery and pharmacophoric characterization of chemokine network inhibitors using phage-display, saturation mutagenesis and computational modelling” (Nature Communications, 2023).
